Patent US6127136A, “Detection of dioxin-like compounds by detection of transformed Ah receptor/ARNT complex” (Paracelsian, Inc., priority 1996, dated 2000)

What was measured:
[1] = system: Ah receptor/ARNT complex (TCDD-transformed, endogenous in cytosol); assay: ELONA; settings: EC50 is for TCDD dose, not DNA; 30 C, Ah-ELISA on neutravidin plate, anti-ARNT detection
[2] = target: transformed Ah receptor/ARNT complex (Cavia porcellus, UniProt Q6J287); assay: mini-Ah immunoassay with anti-ARNT detection of transformed Ah receptor/ARNT complex; type: biochemical, guinea pig (male Hartley, hepatic cytosol); design: AHR/ARNT heterodimer on DRE gel, anti-ARNT detection; in some samples recombinant baculovirus ARNT (Bradfield) added; settings: Example 4
Chain of transformed Ah receptor/ARNT complex (Q6J287 10-846): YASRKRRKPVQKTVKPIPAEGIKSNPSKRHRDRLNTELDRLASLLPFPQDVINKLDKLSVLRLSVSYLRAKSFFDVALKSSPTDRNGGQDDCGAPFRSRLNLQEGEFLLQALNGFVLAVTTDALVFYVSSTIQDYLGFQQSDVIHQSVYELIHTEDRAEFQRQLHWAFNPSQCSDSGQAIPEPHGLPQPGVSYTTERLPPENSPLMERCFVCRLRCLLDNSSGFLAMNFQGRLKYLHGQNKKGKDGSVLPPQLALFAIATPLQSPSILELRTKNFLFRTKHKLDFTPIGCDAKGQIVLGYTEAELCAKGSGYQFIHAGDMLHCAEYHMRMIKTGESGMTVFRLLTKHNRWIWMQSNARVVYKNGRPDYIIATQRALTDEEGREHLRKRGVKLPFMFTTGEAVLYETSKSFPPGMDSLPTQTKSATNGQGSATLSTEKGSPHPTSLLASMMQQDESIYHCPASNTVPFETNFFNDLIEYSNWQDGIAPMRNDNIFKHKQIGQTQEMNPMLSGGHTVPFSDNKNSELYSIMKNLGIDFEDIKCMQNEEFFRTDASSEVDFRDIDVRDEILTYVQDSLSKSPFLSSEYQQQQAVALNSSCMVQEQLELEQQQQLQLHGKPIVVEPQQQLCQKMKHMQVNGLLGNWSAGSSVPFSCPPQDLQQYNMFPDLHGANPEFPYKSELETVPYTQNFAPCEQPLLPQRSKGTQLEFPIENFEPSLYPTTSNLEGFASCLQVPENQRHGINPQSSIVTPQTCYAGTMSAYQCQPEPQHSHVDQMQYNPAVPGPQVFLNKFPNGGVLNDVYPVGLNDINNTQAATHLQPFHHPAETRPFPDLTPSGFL
Chain of transformed Ah receptor/ARNT complex (Q0WXX3 1-790 partner): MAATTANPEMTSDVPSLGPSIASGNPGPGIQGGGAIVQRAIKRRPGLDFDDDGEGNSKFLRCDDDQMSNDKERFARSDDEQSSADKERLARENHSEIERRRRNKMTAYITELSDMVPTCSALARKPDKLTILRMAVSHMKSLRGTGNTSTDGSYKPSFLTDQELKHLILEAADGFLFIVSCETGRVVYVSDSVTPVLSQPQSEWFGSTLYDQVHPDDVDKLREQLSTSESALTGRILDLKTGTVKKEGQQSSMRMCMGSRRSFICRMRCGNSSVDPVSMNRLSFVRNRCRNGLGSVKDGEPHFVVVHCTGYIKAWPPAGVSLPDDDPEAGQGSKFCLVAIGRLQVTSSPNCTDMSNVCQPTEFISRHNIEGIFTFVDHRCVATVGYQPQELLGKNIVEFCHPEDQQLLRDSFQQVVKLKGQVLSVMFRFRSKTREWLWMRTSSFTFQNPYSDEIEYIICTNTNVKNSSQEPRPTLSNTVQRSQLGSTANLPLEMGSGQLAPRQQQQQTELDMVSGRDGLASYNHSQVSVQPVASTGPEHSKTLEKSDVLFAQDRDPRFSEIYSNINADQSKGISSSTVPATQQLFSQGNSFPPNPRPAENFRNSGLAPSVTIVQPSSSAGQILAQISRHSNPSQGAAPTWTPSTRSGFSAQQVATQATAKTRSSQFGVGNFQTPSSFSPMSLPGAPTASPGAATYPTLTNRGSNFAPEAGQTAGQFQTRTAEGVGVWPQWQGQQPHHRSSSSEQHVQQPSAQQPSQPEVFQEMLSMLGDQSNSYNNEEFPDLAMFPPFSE
Chain of transformed Ah receptor/ARNT complex (P27540 whole entry partner, the tested form may be a part): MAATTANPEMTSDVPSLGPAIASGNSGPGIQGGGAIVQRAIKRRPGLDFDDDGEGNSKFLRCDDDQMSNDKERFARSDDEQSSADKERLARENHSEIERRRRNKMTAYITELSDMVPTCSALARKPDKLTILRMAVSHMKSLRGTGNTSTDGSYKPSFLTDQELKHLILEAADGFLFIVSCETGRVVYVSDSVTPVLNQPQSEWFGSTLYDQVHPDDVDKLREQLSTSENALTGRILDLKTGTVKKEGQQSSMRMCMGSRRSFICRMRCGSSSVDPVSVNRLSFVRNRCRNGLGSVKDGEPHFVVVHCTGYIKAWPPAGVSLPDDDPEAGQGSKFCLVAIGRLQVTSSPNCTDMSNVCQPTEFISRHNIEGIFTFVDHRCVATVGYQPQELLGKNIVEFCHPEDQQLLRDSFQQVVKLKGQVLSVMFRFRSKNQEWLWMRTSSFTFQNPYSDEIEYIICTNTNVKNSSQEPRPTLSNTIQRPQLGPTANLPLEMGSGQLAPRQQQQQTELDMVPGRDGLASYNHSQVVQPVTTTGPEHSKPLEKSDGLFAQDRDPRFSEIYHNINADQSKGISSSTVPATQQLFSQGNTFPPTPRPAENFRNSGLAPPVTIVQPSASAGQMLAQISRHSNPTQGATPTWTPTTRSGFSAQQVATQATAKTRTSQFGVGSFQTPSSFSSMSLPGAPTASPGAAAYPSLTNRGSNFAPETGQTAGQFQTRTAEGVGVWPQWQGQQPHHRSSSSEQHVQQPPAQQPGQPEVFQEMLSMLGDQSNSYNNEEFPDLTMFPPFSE
Description: (§1) Male Hartley guinea pigs weighing 300-350 g were obtained from Cornell Research Animal Resources, Cornell University, Ithaca, N.Y. Guinea pigs were anaesthetized and killed with carbon dioxide. Livers were perfused in situ with 100 mL ice-cold perfusion buffer, excised, trimmed of connective tissue, poorly perfused liver and gall bladder and weighed. The liver was minced and five mL of ice-cold HEDG per gram liver were added and the whole homogenized in a 50 mL homogenizer with teflon pestle using at 200 rpm for a total of seven strokes. Crude homogenate was centrifuged at 12,500 RPM in 50 mL tubes in a JA17 rotor in a Beckman J2-MI preparative centifuge at 4 degrees C for 20 minutes.
(§2) For a typical mini-Ah immunoassay utilizing 12 samples, 5 mL of Transformed Ah Receptor Affinity Gel slurry described above was pipeted into a 50 mL conical tube. The slurry was washed with 40 mL HEDG and centifuged at 1000 g for 5 min, the supernatant withdrawn and discarded, the pellet washed with 40 mL HEDG, and centrifuged again. After the second centrifugation all but 5 mL of supernatant was withdrawn and the gel thus resuspended in the original volume. 10 mL guinea pig hepatic cytosol was thawed. The thawed cytosol was pooled and then divided into two 5 mL groups and treated with either 5 uL DMSO or 5 uL 10 uM TCDD in DMSO.
(§3) Assembly of transformation mixture:In the preferred embodiment of the mini-Ah immunoassay, each sample was composed of one 1.5 mL microfuge tube with the following sequential additions: 90 uL 4 M NaCl/HEDG, 400 uL Transformed Ah Receptor Affinity Gel slurry and 800 uL cytosol (treated with DMSO or TCDD as described above). The three components described above are the minimum components added at that step of the mini-Ah immunoassay. Any additional materials, such as ARNT, anti-ARNT and anti-Rabbit/alkaline phosphatase conjugate, were sometimes also added at this time as described in the specific examples. After assembly of the samples, the tubes were capped and the samples incubated at room temperature for 2 hours with gentle rocking to allow transformation of the Ah receptor to take place, interaction of transformed Ah receptor and ARNT, and binding of the transformed Ah receptor as a heteromer to the DRE oligonucleotide contained on the Transformed Ah Receptor Affinity Gel.
Immunoprobing of transformed Ah receptor: The nitrocellulose membrane was then removed from the ELIFA apparatus, rinsed briefly with water, and placed in 20 mL blocker containing test antibody. All antibodies were incubated with the nitrocellulose membrane for one hour at room temperature. When the test antibody was anti-Ah receptor/alkaine phosphatase conjugate, 100 uL anti-Ah receptor/alkaline phosphatase conjugate (1:200), per 20 mL blocker was used. When anti-ARNT was added to the transformation mixture, anti-Rabbit/alkaline phosphatase conjugate (Sigma, St. Louis, Mo.) diluted 1:1000 (20 uL to 20 mL blocker) was used to probe the membrane. When ARNT, anti-ARNT and anti-Rabbit or anti-ARNT and anti-Rabbit was added to the transformation mixture, the Immunoprobing step was eliminated.
Immunodetection and densitometry: In all cases the nitrocellulose membrane was rinsed prior to immunodetection 3 times for 5 min each with 100 mL TBST, briefly washed in AP development buffer and developed in freshly made BCIP/NBT developer for 5 min, whereupon the color reaction was stopped by washing the membrane in water.
Quantitative data were obtained by scanning the dried membrane in a Microtek 600ZS scanner in gray scale, 300 dpi, 0% brightness, 0% contrast. Densitometric measurements of the dot-blots were made using ScanAnalysis software (Biosoft, Cambridge U.K.).
Cytosol and DRE affinity gel are prepared as described above. Cytosol is dosed with 1:1000 v/v DMSO (-) or 1:1000 v/v 10 uM 2,3,7,8-tetrachlorodibenzo-p-dioxin in DMSO (+).
Immunoprobing of transformed Ah receptor is as described above with the following probes. […]

transformed Ah receptor = target: T1, transformed Ah receptor (Cavia porcellus, UniProt Q6J287); assay: mini-Ah immunoassay (DRE affinity gel, dot-blot spot density), with or without added recombinant ARNT; type: biochemical, guinea pig (male Hartley, hepatic cytosol)
T1 construct: TCDD-transformed receptor captured as heterodimer on DRE-oligonucleotide gel; recombinant ARNT added in some protocols
T1 sequence (Q6J287 10-846): as the sequence (Q6J287 10-846) above
T1 sequence (Q0WXX3 1-790 partner): as the sequence (Q0WXX3 1-790 partner) above
Description: as §1
Procedure for the mini-Ah Immuno Assay
Preparation of Buffers: 155 uM TCDD stock was prepared by dissolving 1 mg 2,3,7,8-tetrachloro-dibenzo-p-dioxin (Cambridge Isotope Labs) in 20 mL DMSO (dimethylsulfoxide) overnight. 10 uM working dilution of TCDD was prepared by diluting 0.129 mL of the stock with 1.871 mL DMSO. 4M NaCl/HEDG was prepared by adding 116.88 g sodium chloride to 300 mL HEDG and adjusting the volume to 500 mL with HEDG. 0.3 M NaCl/HEDG was prepared by diluting 1.5 mL 4 M NaCl/HEDG to 20 mL with HEDG 0.6 M NaCl/HEDG was prepared by diluting 3.0 mL 4 M NaCl/HEDG to 20 mL with HEDG TBST was prepared by dissolving 1.18 g Tris-base, 6.35 g Tris-HCl, 8.76 g NaCL, and 2 mL Tween 20 in 800 mL water, adjusting volume to 1000 mL. Blocker was prepared by dissolving 10 g non-fat dry milk (Carnation) in 200 mL TBST. AP development buffer was prepared by dissolving 11 g Tris-base, 1.6 g Tris-HCl, 5.84 g Sodium Chloride, 10.2 g Magnesium Chloride hexahydrate, in 800 mL water and adjusting the volume to 1000 mL. BCIP stock was prepared by dissolving 100 mg BCIP (5-Bromo-4-Chloro-3-Indolyl Phosphate) in 2 mL N,N-Dimethylformamide, aliquoting into 66 uL portions, and freezing at -20 C until use. NBT stock was prepared by dissolving 250 mg NBT (Nitro Blue Tetrazolium) in 25 mL water, aliquoting into 660 uL proportions, and storing at -20 C until use. BCIP/NBT developer was prepared immediately before use by mixing one 66 uL aliquot of BCIP and one 660 uL aliquot of NBT in 20 mL AP development buffer.
as §2, §3
Isolation transformed Ah receptor: After the 2 hour incubation the mixtures were pipetted into the empty column barrels and allowed to drain. […]

| Substance | EC50 [1] | effect of ARNT addition on response [2] | effect of ARNT amount on response (transformed Ah receptor; 0.5 ug vs 2 ug ARNT, Example 2) | effect of ARNT addition on non-TCDD dependent transformation of the Ah receptor (transformed Ah receptor; ARNT 2 ug/assay, Example 1) | increase of TCDD-dependent response by ARNT addition (transformed Ah receptor; ARNT 2 ug/assay, Example 1) |
| --- | --- | --- | --- | --- | --- |
| B-DRE (DRE-D/B-ERD) | 0.5 nM | – | – | – | – |
| ARNT: Purified recombinant ARNT (Ah Receptor Nuclear Translocator) | – | improves response | 0.5 ug arnt gave less response than 2 ug ARNT | did not increase non-TCDD dependent transformation of the Ah receptor | 354% |
